Six molecules from US20250011456A1, “ANTIBODIES AGAINST CD14 AND USES THEREOF” (Villanelle Life Science Inc, priority 2023, published 2025) can be followed below.

Residue numbers refer to the chain shown, from its start.

In the test the target is T1, recombinant human CD14 (B294801, histidine tagged) (Homo sapiens, UniProt P08571).
T1 construct: His; purchased Shanghai BaiYing Biotechnology Co., Ltd B294801 (Batch number 20200518A22)
T1 sequence (P08571 20-345): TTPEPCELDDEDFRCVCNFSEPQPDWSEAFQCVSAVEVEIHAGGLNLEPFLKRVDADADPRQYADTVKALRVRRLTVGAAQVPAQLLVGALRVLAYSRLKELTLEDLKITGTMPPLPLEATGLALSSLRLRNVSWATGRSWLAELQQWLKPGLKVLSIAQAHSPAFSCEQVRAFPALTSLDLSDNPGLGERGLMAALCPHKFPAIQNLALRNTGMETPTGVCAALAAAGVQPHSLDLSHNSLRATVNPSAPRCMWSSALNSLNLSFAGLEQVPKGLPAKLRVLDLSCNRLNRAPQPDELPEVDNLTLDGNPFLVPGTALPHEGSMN
Briefly: Biacore 8K kinetic and affinity test of humanized antibodies (Example 8). The settings on record: for Kd / koff (1:1 binding) / kon (1:1 binding): Biacore 8K, analyte B294801 0.78125-25 nM, capture 1 μg/mL; for Kd: KD=koff/kon; for affinity compared with the mouse antibody D6DD3D001: Biacore, B294801 antigen; for Change Factor (ratio of KD of the humanized to mouse antibody): relative to mouse antibody D6DD3D001. The class given is binding. On the procedure: Experimental reagents and consumables included Protein A chip (Cytiva, 29127556). Main instruments and equipment included Biacore 8K (Cytiva), shaker (Taicang Huamei), ELISA system (Molecular Devices), centrifuge (Baiyang), ultrapure water system (Millipore), and thermostatic incubator (BLUE PARD).
The antigen used for the binding affinity measurements is B294801. This antigen is a recombinant human CD14 antigen that is histidine tagged and has a molecular weight of 36 kDa. B294801 was purchased from Shanghai BaiYing Biotechnology Co., Ltd (name: Recombinant Human CD14/His Protein; Batch number 20200518A22). D6DD3D001 is a mouse antibody, and D6DD3D002-D6DD3D0016 are humanized antibodies. The antibodies are recombinant, human (hFc Tag). Selected parameters of the experimental samples are shown in Table 8-1, with MW referring to molecular weight in kiloDaltons (kDa).
The Biacore 8K platform was used to test the kinetic and affinity properties of the antibody. The operation was carried out according to the system instructions and indications.
The equilibrium dissociation constant (KD) reflects the affinity of the antibody to the target, with a smaller value indicating a stronger affinity. KD (in units of molarity) is determined by the ratio of the dissociation rate constant (koff) and the association rate constant (kon), that is, KD=Koff/kon.
15 humanized antibodies (numbered D6DD3D002-D6DD3D0016) and 1 mouse antibody (number D6DD3D001) were tested. For the experiments, the analyte solution comprises the B294801 antigen with an analyte concentration of 0.78125 nM, 1.5625 nM, 3.125 nM, 6.25 nM, 12.5 nM, and 25 nM. The capture concentration was 1 μg/mL. In Table 8-3, the change factor is the ratio of the equilibrium dissociation constant KD of the humanized to mouse antibody, and reflects the change in affinity after humanization.

B1: D6DD3D005: humanized anti-CD14 antibody; VH SEQ ID NO: 17, VL SEQ ID NO: 19 (antibody, V domains shown)
VH: QVQLQESGPGLVKPSETLSLTCTVSGYSITSDSAWNWIRQPPGKGLEWIGYISYSGSTSYNPSLKSRVTISRDTSKNQFSLKLSSVTAADTAVYYCVRGLRFAYWGQGTLVTVSS
VL: EIVLTQSPATLSLSPGERATLSCRASESVDSYVNSFLHWYQQKPGQAPRLLIYRASNLQSGIPARFSGSGSRTDFTLTISSLEPEDVAVYYCQQSNEDPYTFGQGTKLEIK
For orientation: Kd means a measure of binding affinity in units of concentration. For the molecule B1, the Kd amounted to 529 pM, the “koff (1:1 binding)” value was 0.000798 s⁻¹, the “kon (1:1 binding)” value was 1.51e+06 M⁻¹ s⁻¹ and the “affinity compared with the mouse antibody D6DD3D001” value is on record as “approximately equivalent to the affinity of the antibody D6DD3D001 before humanization”. Further, the “Change Factor (ratio of KD of the humanized to mouse antibody)” value was found to be 1.09.

B2: D6DD3D015: humanized anti-CD14 antibody; VH SEQ ID NO: 57, VL SEQ ID NO: 59 (antibody, V domains shown)
VH: B1 VH
VL: DIQLTQSPSSLSASVGDRVTITCRASESVDSYVNSFLHWYQQKPGKAPKLLIYRASNLQSGVPSRFSGSGSRTDFTLTISSLQPEDVATYYCQQSNEDPYTFGQGTKLEIK
As to B2, the Kd worked out at 532 pM, the “koff (1:1 binding)” value worked out at 0.000843 s⁻¹, the “kon (1:1 binding)” value was 1.59e+06 M⁻¹ s⁻¹ and the “affinity compared with the mouse antibody D6DD3D001” value was “approximately equivalent to the affinity of the antibody D6DD3D001 before humanization”. Besides, the “Change Factor (ratio of KD of the humanized to mouse antibody)” value turned out to be 1.10.

B3: D6DD3D007: humanized anti-CD14 antibody; VH SEQ ID NO: 25, VL SEQ ID NO: 27 (antibody, V domains shown)
VH: B1 VH with E16Q, Y27G, T30S, P41H
VL: DIVLTQSPDSLAVSLGERATINCRASESVDSYVNSFLHWYQQKPGQPPKLLIYRASNLQSGVPDRFSGSGSRTDFTLTISSLQAEDVAVYYCQQSNEDPYTFGQGTKLEIK
For B3, the “koff (1:1 binding)” value worked out at 0.00342 s⁻¹ and the “kon (1:1 binding)” value was 2.11e+06 M⁻¹ s⁻¹.

B4: D6DD3D010: humanized anti-CD14 antibody; VH SEQ ID NO: 37, VL SEQ ID NO: 39 (antibody, V domains shown)
VH: B1 VH
VL: B3 VL
As for B4, the Kd was determined as 555 pM, the “koff (1:1 binding)” value came to 0.00105 s⁻¹, the “kon (1:1 binding)” value is 1.9e+06 M⁻¹ s⁻¹ and the “affinity compared with the mouse antibody D6DD3D001” value is “approximately equivalent to the affinity of the antibody D6DD3D001 before humanization”. Also, the “Change Factor (ratio of KD of the humanized to mouse antibody)” value is recorded as 1.14.

B5: D6DD3D006: humanized anti-CD14 antibody; VH SEQ ID NO: 21, VL SEQ ID NO: 23 (antibody, V domains shown)
VH: B1 VH with E16Q
VL: B1 VL
Turning to B5, the Kd was 602 pM, the “koff (1:1 binding)” value worked out at 0.000862 s⁻¹, the “kon (1:1 binding)” value stood at 1.43e+06 M⁻¹ s⁻¹ and the “Change Factor (ratio of KD of the humanized to mouse antibody)” value is 1.24.

B6: D6DD3D008: humanized anti-CD14 antibody; VH SEQ ID NO: 29, VL SEQ ID NO: 31 (antibody, V domains shown)
VH: B1 VH with Y27G, T30S
VL: B3 VL
Consider B6, for which the Kd was found to be 1570 pM, the “koff (1:1 binding)” value was determined as 0.00329 s⁻¹, the “kon (1:1 binding)” value was found to be 2.09e+06 M⁻¹ s⁻¹ and the “Change Factor (ratio of KD of the humanized to mouse antibody)” value came out at 3.24.
